Patent publication US20220041739A1 (UNIVERSITY OF ULSTER, published 2022)

Target: T1, IL-1R1 Fc fusion protein
T1 construct: Used as immunogen and as ELISA coating antigen at 1 ug/ml; also called IL-1R1 immunogen
T1 chain: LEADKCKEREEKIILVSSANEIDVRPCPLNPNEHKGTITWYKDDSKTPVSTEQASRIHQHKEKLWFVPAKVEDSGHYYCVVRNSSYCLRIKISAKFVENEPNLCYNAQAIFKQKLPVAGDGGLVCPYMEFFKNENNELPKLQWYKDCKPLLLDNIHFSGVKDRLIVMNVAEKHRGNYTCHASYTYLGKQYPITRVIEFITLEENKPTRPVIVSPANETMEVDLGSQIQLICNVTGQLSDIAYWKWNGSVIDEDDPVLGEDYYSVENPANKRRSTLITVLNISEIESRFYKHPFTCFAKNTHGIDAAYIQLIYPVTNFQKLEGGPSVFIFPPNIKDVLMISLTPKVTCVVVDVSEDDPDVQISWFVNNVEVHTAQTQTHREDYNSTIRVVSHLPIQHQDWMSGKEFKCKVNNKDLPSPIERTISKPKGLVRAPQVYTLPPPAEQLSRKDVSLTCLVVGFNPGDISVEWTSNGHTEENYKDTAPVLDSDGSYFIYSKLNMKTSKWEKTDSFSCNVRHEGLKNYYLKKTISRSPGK
Experiment: ELISA of hybridoma supernatants on coated IL-1R1, with APO-A1 as negative control
Protocol: The day prior to screening, a Maxi Sorp plate was coated by adding 100 μl/well of 50 mM sodium carbonate coating buffer (pH 9.5) containing the IL-1R1 at 1 μg/ml. A separate coating solution was prepared by diluting APO-A1 in the same coating buffer at 1 μg/ml. […] This plate was incubated overnight at 4° C. in static conditions.
Eleven days after fusion, protoclones were screened by ELISA. 20× Maxi Sorp 96 well plates were coated as described herein using APO-A1 at 1 μg/ml as the negative control for specificity. The coating solution was removed and the plates were blocked as described herein. Samples were prepared by removing 160 μl of supernatant from each well of the ten fusion plates, limiting dilution plates, or 24-well plates and transferring to fresh 96 well culture plates containing 50 μl 1×PBS. After 2 hours of blocking, the blocking solution was removed, and the plates were washed 3× with PBS-T. The samples from each dilution plate were loaded onto the ELISA plates at 100 μl/well by adding 1 row from each dilution plate per 2 rows on the ELISA plates to account for specificity of the coating antigens. Two wells per ELISA were incubated with 100 μl 1×PBS as a negative control. These samples were incubated at 150 rpm for 2 hours at room temperature.

binding result: binds
B1: Anti-IL-1R1 monoclonal antibody produced from clone F237 5D1-1A8-2A5 (antibody, V domains shown)
VH: QIQLVQSGPELRKPGETVRISCKASGYPFTTAGLQWVQKMSGKGLKWIGWMNTQSEVPKYAEEFKGRIAFSLETAASTAYLQINNLKTEDTATYFCAKSVYFNWRYFDVWGAGTTVTVSS
VL: DIVMTQSPATLSVTPGDRVSLSCRASQSISDYLSWYQQRSHESPRLIIKYASQSISGIPSRFSGSGSGSDFTLSINSVEPEDVGVYYCQHGHSFPLTFGSGTKLELKR
notes: Mouse hybridoma antibody tested as culture supernatant; also called first antibody (to IL-1R1)
